Data as given in article PMC11371640, “Structural deficits in key domains of Shank2 lead to alterations in postsynaptic nanoclusters and to a neurodevelopmental disorder in humans” (Molecular Psychiatry, 2022).

B1: His6-SUMO-tagged SH3 to PDZ domains of Shank2 (R520-D727), WT [not stated (human or rat cDNA cloned)] / synthetic peptide of the complete PDZ ligand of GKAP (last 15 amino acids of GKAP/SAPAP1) [not stated] (parent complex)
chain 1: RKLYSAVPGRLFVAVKPYQPQVDGEIPLHRGDRVKVLSIGEGGFWEGSARGHIGWFPAECVEEVQCKPRDSQAETRADRSKKLFRHYTVGSYDSFDTSSDCIIEEKTVVLQKKDNEGFGFVLRGAKADTPIEEFTPTPAFPALQYLESVDEGGVAWQAGLRTGDFLIEVNNENVVKVGHRQVVNMIRQGGNHLVLKVVTVTRNLDPDD
chain 2: ADSIEIYIPEAQTRL

Variants of: B1
Assay: ITC; parent: 319 nM

Row | Kd | Variant
1 | 411 nM | chain 1 N171S
2 | 848 nM | chain 1 V198F
3 | 910 nM | chain 1 S91Y

Variants of: B1
Assay: ITC; parent: 320 nM

Row | Kd | Variant
4 | 22.5 µM | chain 1 G124R

Variants of: B1
Assay: ITC; parent: 319 nM
Remark: another data set of the same source

Row | Kd | Variant
5 | 22 µM | chain 1 G124R
